According to the supplement of paper PMC9732359:
± gives the uncertainty stated by the source.

Assay: protein stability index of a GFP-peptide fusion (yeast GPS) (PSI 1-4); higher = more stable; sorted into four equal gates, so the index is relative within each strain
Procedure, shortened: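 Tiled 17-residue yeast protein peptides were fused downstream of GFP in a plasmid that also expresses Cherry, and the pooled library was carried in yeast. Mid-log cultures in leucine-free medium were sorted into four equal gates by GFP/Cherry fluorescence ratio, and plasmids from each gate were PCR-amplified and Illumina-sequenced, with reads assigned to strains by barcodes. The protein stability index for each peptide was each gate's read frequency times its gate number, summed.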

Sequence	protein stability index (doa10∆)	protein stability index (pdr5∆)	protein stability index (san1∆)	protein stability index (ubr1∆)
RELREVIELPLKNPEIF [RPT4]	2.71 ± 0.14	3.73 ± 0.27	3.08 ± 0.18	3.06 ± 0.088
LAKTKENYDAKIELEKK [YIL149C/MLP2]	3.22 ± 0.058	3.47 ± 0.075	3.05 ± 0.061	3.13 ± 0.053
AAEKSFKPPKNKYKVVR [SEC65]	3 ± 0.28	3.08 ± 0.19	3.05 ± 0.12	3.15 ± 0.12
IAQGIDLVRDIDIDKLI [SRP72]	1.65 ± 0.14	1.23 ± 0.12	1.58 ± 0.21	1.1 ± 0.16
GMYALRERRIHVTQEDF [RPT6]	1.81 ± 0.074	1.94 ± 0.054	1.59 ± 0.099	2.49 ± 0.1
DMPSLRLIDLSGCENIT [GRR1]	2.33 ± 0.083	2.7 ± 0.097	2.45 ± 0.094	2.65 ± 0.09
LTNEDPPGLMYLKAFDK [SSN2]		2.61 ± 0.26		3.22 ± 0.13
ERFTKSKTLSLIQSYSL [FAS1]	2.29 ± 0.063	2.06 ± 0.043	1.93 ± 0.11	2.06 ± 0.039
GFINQKNLKPQEQLKNV [YIL149C/MLP2]	3.09 ± 0.11	2.84 ± 0.081	2.77 ± 0.062	2.9 ± 0.068
KRPNNKTLEKLESTIAE [IRR1]	3.62 ± 0.14	3.35 ± 0.1	3.01 ± 0.096	3.31 ± 0.14
TTESSDLKEGLQDLSRY [GRR1]	3.24 ± 0.12	3.33 ± 0.11	3.33 ± 0.052	3.55 ± 0.045
FGGSQPNSGTATTGGFG [YGR119C/NUP57]	2.98 ± 0.2	3.05 ± 0.12	3.15 ± 0.18	3.4 ± 0.2
PAQKDSSVVSEPKKPSF [YOR098C/NUP1]	2.94 ± 0.061	2.71 ± 0.05	2.3 ± 0.076	2.89 ± 0.042
TRSAKKMVIAELLPHYP [YJR042W/NUP85]	2.83 ± 0.089	2.81 ± 0.087	2.89 ± 0.052	3 ± 0.074
VQRTMLELLNQLDGFSS [RPT5]	2.99 ± 0.078	2.88 ± 0.072	2.83 ± 0.063	2.99 ± 0.05
QKQLPQKTRVKLLFDHD [ESC2]	2.86 ± 0.057	2.93 ± 0.05	3.03 ± 0.039	3 ± 0.039
AILKLLENMPHPWEQAK [PRP8]	2.76 ± 0.12	2.05 ± 0.088	1.93 ± 0.13	2.16 ± 0.057
FLKLYVLVKWTRTIKQN [RGR1]	1.41 ± 0.11	1.85 ± 0.14	2.38 ± 0.17	1.15 ± 0.091
LVSTLTTGISSTGAADG [SMC2]	2.34 ± 0.097	2.65 ± 0.088	2.93 ± 0.092	2.69 ± 0.059
AAKEGLALSSNISRDFQ [COR1]	2.71 ± 0.089	3.08 ± 0.071	3.13 ± 0.079	2.76 ± 0.096
SIHAHGSTDVGYYLSLG [PUP1]	2.62 ± 0.069	2.79 ± 0.069	2.91 ± 0.065	2.24 ± 0.053
NNCEDFVSRPDRTMLAP [FAS1]	3.28 ± 0.25	2.98 ± 0.17	2.93 ± 0.26	3.2 ± 0.11
ITKLLEINLSKIFQTTP [YCS4]	2.58 ± 0.054	2.23 ± 0.044	2.43 ± 0.042	2.6 ± 0.033
PLINLALIDTEFANFEL [YML103C/NUP188]	2.71 ± 0.083	2.72 ± 0.071	2.5 ± 0.089	2.95 ± 0.073
VWYGLSDGEDGHIPWHI [SSN2]	3.05 ± 0.08	3.25 ± 0.091	3.07 ± 0.053	3.1 ± 0.062

Sequence	protein stability index (doa10∆)	protein stability index (pdr5∆)	protein stability index (san1∆)	protein stability index (ubr1∆)
LTKFRQKLMQLVVLTDV [RGR1]	1.26 ± 0.097	1.16 ± 0.074	1.24 ± 0.18	1.13 ± 0.05
KDDRFVPVRKFKGNNGV [RPN2]	2.02 ± 0.07	2.77 ± 0.09	2.94 ± 0.069	2.28 ± 0.053
NESSLALEFVSLLLSSV [SRB4]	1.18 ± 0.045	1.33 ± 0.048	1.53 ± 0.09	1.6 ± 0.05
TGTGLQDENIGLSMLAK [RPC31]	3.12 ± 0.14		3.05 ± 0.13	3.4 ± 0.11
NIFKAEMDSVSKSMKFS [CSN9]	2.58 ± 0.065	2.58 ± 0.066	2.71 ± 0.051	2.85 ± 0.044
LLAKAVANQTSATFLRI [RPT2]	3 ± 0.13	2.27 ± 0.1	2.3 ± 0.14	2.21 ± 0.073
FIKLQKIDIIELQKSLS [FAS1]	2.15 ± 0.045	2 ± 0.044	2.04 ± 0.059	2.28 ± 0.047
SPQLTAIIGLKSGTSHD [SNF12]	1.52 ± 0.067	1.82 ± 0.074	1.84 ± 0.12	1.66 ± 0.065
EASNTPIEHQFNPYGDN [PRE7]	3.15 ± 0.08	3.33 ± 0.089	3.54 ± 0.091	3.38 ± 0.086
KKAKLVLIANDVDPIEL [RPL8A]	3.17 ± 0.15	2.81 ± 0.068	3.09 ± 0.07	2.83 ± 0.072
NTNTENENRNTGAGVDV [SNF11]	2.9 ± 0.062	2.98 ± 0.045	2.66 ± 0.044	2.88 ± 0.044
SVSMLLQYYILEYMNTA [RRI2]	2.22 ± 0.079	2.34 ± 0.089	2.93 ± 0.086	2.19 ± 0.055
QSLNEMVKLIVMLCTLT [YJL039C/NUP192]	2.52 ± 0.071	2.63 ± 0.057	2.81 ± 0.11	2.27 ± 0.058
EIFQLFTNPSVDIQIIN [SWI1]	2.69 ± 0.081	2.88 ± 0.09	2.55 ± 0.078	2.54 ± 0.064
NSTDGAKITEIGSTSKR [YIL149C/MLP2]	3.02 ± 0.12	2.91 ± 0.086	3.01 ± 0.074	3.18 ± 0.062
VFLLLQAYFSRLELPVD [BRR2]	1.59 ± 0.05	1.31 ± 0.043	1.26 ± 0.089	1.48 ± 0.041
HRLTLEDPVTVEYLTRY [PRE6]	3.33 ± 0.19	3.64 ± 0.24	3.01 ± 0.19	2.68 ± 0.22
KGLKENDVAVEKTGKSA [BRR2]	3.03 ± 0.15		2.73 ± 0.21	
HKKKRSNAAGADDAISM [SRB8]	3.06 ± 0.11	2.45 ± 0.067	2.83 ± 0.18	2.75 ± 0.054
SFNIPRLTFKPWVVYLQ [YMR129W/POM152]	1.2 ± 0.055	1.29 ± 0.055	1.09 ± 0.1	1.04 ± 0.042
ILRNGIDYLQRNDKTLE [POP1]	3.19 ± 0.058	3.01 ± 0.056	2.95 ± 0.054	2.88 ± 0.051
IGVLNNSSESDEEESND [RPN13]	3.52 ± 0.2	2.4 ± 0.25		3.37 ± 0.095
ADGQTLFAGYTDNVIRV [ASC1]	1.85 ± 0.055	2.16 ± 0.052	2.22 ± 0.063	2.35 ± 0.057
RMIPPRMVRSIMWQLLD [SSN3]	1.95 ± 0.18	1.68 ± 0.12	1.56 ± 0.11	
LKTRYVGRQDPKKHLSE [RPN11]	3.08 ± 0.087	3.11 ± 0.18	3.3 ± 0.078	3.26 ± 0.12
